Experimental data reported in patent publication US12410262B2, “Peptide conjugates of cytotoxins as therapeutics” (Cybrexa 2, Inc., priority 2019, dated 2025).

Key:
[1] = Bone marrow toxicity study in a mouse model; assay type: in vivo, athymic nude Foxn^nu mice; details: 2.6 and 5.2 μmoles/kg (10, 20 mg/kg) IP once daily for 4 days
Protocol: Six-week-old female athymic nude Foxn^nu mice were obtained from Taconic Labs (Cat #NCRNU-F) and were housed 5 per cage on Alpha-Dri bedding in a disposable caging system (Innovive). Human HCT116 cancer cells derived from colorectal carcinoma were diluted 1:1 in Phenol Red-free Matrigel and subcutaneously implanted into the left flank of each mouse at a density of 2.5×10^6 cells in 100 μL. When xenografts reached a minimal volume of 200 mm^3, mice were administered intraperitoneal doses of vehicle or 2.6 or 5.2 μmoles/kg of either unconjugated exatecan (equivalent to 1.15 or 2.3 mg/kg exatecan, respectively) or Compound 11 (equivalent to 10 or 20 mg/kg Compound 11, respectively). Compounds were administered once daily for 4 days.
Tumor bearing mice were euthanized by cervical dislocation 6 hours after the last dose. Femurs were removed, and bone marrow was extruded into 50 mL conical tubes by flushing the bones with a 23-gauge needle fitted on a 5 cc syringe containing PBS+2% fetal bovine serum. Bone marrow was homogenized by gentle pipetting and filtered through 100 μm nylon mesh filters and cells were pelleted by centrifugation at 1200 rpm for 5 minutes at 4° C. Red blood cells were lysed with 3 mL of lysis buffer for 2 minutes at room temperature. […] Cell pellets were suspended in 5 mL of PBS and cell count was assessed by trypan blue exclusion. […]

[2] = Gastric toxicity study in a mouse model; assay type: in vivo, athymic nude Foxn^nu mice; details: 5.2 μmoles/kg (20 mg/kg) IP once daily for 4 days
Protocol: Six-week-old female athymic nude Foxn^nu mice were obtained from Taconic Labs (Cat #NCRNU-F) and were housed 5 per cage on Alpha-Dri bedding in a disposable caging system (Innovive). Human HCT116 cells derived from colorectal carcinoma were diluted 1:1 in Phenol Red-free Matrigel and subcutaneously implanted into the left flank of each mouse at a density of 2.5×10^6 cells in 100 μL. When xenografts reached a minimal volume of 300 mm^3, mice were administered intraperitoneal doses of vehicle, or 5.2 μmoles/kg of either unconjugated exatecan (equivalent to 2.3 mg/kg exatecan) or Compound 11 (equivalent to 20 mg/kg Compound 11). Compounds were administered once daily for 4 days. At 6 hours after administration of the last dose, mice were euthanized by cervical dislocation and gross necropsy was conducted. Photographs were taken of the stomachs both in situ and ex vivo.

[3] = Glutathione cleavage study; assay type: in vitro ADME; details: Tris buffer with 10 mM glutathione, Glutathione Challenge (10 mM), 100 μM conjugate, Tris pH 7.5, 37° C.
Summary of the method: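 Conjugate stocks at 20 mM in 100% DMSO were diluted in 100 mM Tris, pH 7.5, to a final 100 μM. Freshly made glutathione was added to 10 mM, and samples were incubated at 37° C. for up to 24 hrs. Samples were extracted with phosphoric acid and acetonitrile/0.1% TFA, centrifuged, and analyzed by HPLC, with peak areas compared to the time-0 conjugate peak.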

CC[C@@]1(O)C(=O)OCc2c1cc1n(c2=O)Cc2c-1nc1cc(F)c(C)c3c1c2[C@@H](NC(=O)O[C@H]1CCCC[C@@H]1SSC[C@H](NC(=O)[C@H](Cc1c[nH]c2ccccc12)NC(=O)[C@H](CC(C)C)NC(=O)[C@H](CC(C)C)NC(=O)[C@H](CC(=O)O)NC(=O)[C@H](CC(C)C)NC(=O)[C@H](CC(C)C)NC(=O)[C@H](CC(C)C)NC(=O)[C@@H](NC(=O)[C@H](CC(=O)O)NC(=O)[C@@H](NC(=O)[C@@H]1CCCN1C(=O)[C@H](Cc1ccccc1)NC(=O)[C@H](CC(C)C)NC(=O)[C@H](CC(C)C)NC(=O)[C@H](CC(=O)O)NC(=O)[C@H](CC(C)C)NC(=O)[C@H](Cc1ccc(O)cc1)NC(=O)[C@H](C)NC(=O)[C@H](CCCNC(=N)N)NC(=O)[C@H](Cc1c[nH]c2ccccc12)NC(=O)[C@@H]1CCCN1C(=O)[C@H](CC(N)=O)NC(=O)[C@H](CCC(N)=O)NC(=O)[C@H](CC(=O)O)NC(=O)[C@H](CC(=O)O)NC(=O)[C@H](C)N)[C@@H](C)O)[C@@H](C)O)C(=O)NCC(=O)O)CC3 [Compound 11]
bone marrow toxicity (total bone marrow counts from femurs) [1]: did not display the bone marrow toxicity
gastric toxicity (stomachs in situ and ex vivo) [2]: did not display the gastric toxicity
remaining at 4 h, 100 µM ([3]; 4 h): 50.1%
remaining at 24 h, 100 µM ([3]; 24 h): 10.2%
